In this series the test system is Escherichia coli TOP10. The experiment in a line: shrunken log2 fold change of peptide-encoding DNA abundance (4.5 h post-induction vs induction); higher = less antimicrobial activity (less host growth inhibition). To be noted: time post-induction: 4.5 h; library: site-saturation at positions 5, 18, 19, 20.
Take RRIRTRPPRLPRPRPRPTMPPRP: the “shrunken log2 fold change” value was -0.0706.

Consider RRIRNRPPRLPRPRPRPGQGPRP, for which the “shrunken log2 fold change” value was -0.0357.

Regarding RRIRIRPPRLPRPRPRPALQPRP, the “shrunken log2 fold change” value is -0.011. As to RRIRIRPPRLPRPRPRPPSIPRP, the “shrunken log2 fold change” value worked out at 0.122. Then RRIRDRPPRLPRPRPRPLYFPRP, with -0.601. The value for RRIRIRPPRLPRPRPRPDPDPRP was -0.131; that for RRIRHRPPRLPRPRPRPTYIPRP was -0.573.

Regarding RRIRPRPPRLPRPRPRPCNDPRP, the “shrunken log2 fold change” value is -0.456. On to RRIRWRPPRLPRPRPRPEECPRP, for which the “shrunken log2 fold change” value came out at 0.158.

With RRIRPRPPRLPRPRPRPAMCPRP, the “shrunken log2 fold change” value is -0.0389. For RRIRKRPPRLPRPRPRPSPFPRP, the “shrunken log2 fold change” value is 0.0443.

Turning to RRIRQRPPRLPRPRPRPICSPRP, the “shrunken log2 fold change” value was -0.0668. The value for RRIRQRPPRLPRPRPRPHETPRP was -0.0223; that for RRIRIRPPRLPRPRPRPMKMPRP was -0.127. Then RRIRARPPRLPRPRPRPECQPRP, with 0.333; and RRIRNRPPRLPRPRPRPPMDPRP, with -0.508. Turning to RRIRLRPPRLPRPRPRPVTDPRP, the “shrunken log2 fold change” value is -0.325. For RRIRFRPPRLPRPRPRPLHKPRP, the “shrunken log2 fold change” value was -0.179. Then RRIRQRPPRLPRPRPRPLLYPRP, with -0.382; and RRIRGRPPRLPRPRPRPANLPRP, with 0.166; and RRIRMRPPRLPRPRPRPVQHPRP, with 0.415. The value for RRIRTRPPRLPRPRPRPKKAPRP was -0.0102; that for RRIRSRPPRLPRPRPRPAWPPRP was 0.49; that for RRIRARPPRLPRPRPRPGIHPRP was 0.37. Then RRIRCRPPRLPRPRPRPQSEPRP, with -0.398; and RRIRGRPPRLPRPRPRPMIDPRP, with 0.967; and RRIRYRPPRLPRPRPRPECQPRP, with 0.0129. Consider RRIRHRPPRLPRPRPRPNADPRP, for which the “shrunken log2 fold change” value was 0.031. Then RRIRRRPPRLPRPRPRPHHQPRP, with -0.086; and RRIRERPPRLPRPRPRPKCSPRP, with -0.0163. For the sequence RRIRVRPPRLPRPRPRPVEIPRP, the “shrunken log2 fold change” value is -0.0612.

Take RRIRSRPPRLPRPRPRPLCGPRP: the “shrunken log2 fold change” value was found to be 0.0948. The value for RRIRTRPPRLPRPRPRPGCNPRP was 0.0386. The value for RRIRQRPPRLPRPRPRPSMSPRP was -0.393; that for RRIRPRPPRLPRPRPRPECHPRP was -0.0419; that for RRIRARPPRLPRPRPRPGMYPRP was -0.111.

With RRIRHRPPRLPRPRPRPSDHPRP, the “shrunken log2 fold change” value is -0.548.

As to RRIRDRPPRLPRPRPRPTDNPRP, the “shrunken log2 fold change” value was -0.5. On to RRIRARPPRLPRPRPRPGYKPRP, for which the “shrunken log2 fold change” value was -0.268. Then RRIRPRPPRLPRPRPRPHAQPRP, with -0.119; and RRIRKRPPRLPRPRPRPQMIPRP, with -0.14; and RRIRARPPRLPRPRPRPPAMPRP, with 0.394.

Take RRIRGRPPRLPRPRPRPLFGPRP: the “shrunken log2 fold change” value was 0.584. Then RRIRPRPPRLPRPRPRPGQTPRP, with -0.00112.

As for RRIRPRPPRLPRPRPRPAHGPRP, the “shrunken log2 fold change” value came to 0.708. Then RRIRIRPPRLPRPRPRPWLIPRP, with 0.0717; and RRIRVRPPRLPRPRPRPPADPRP, with 0.565; and RRIRCRPPRLPRPRPRPQMYPRP, with -0.14. RRIRGRPPRLPRPRPRPYPMPRP: the “shrunken log2 fold change” value is -0.142.

Take RRIRSRPPRLPRPRPRPEMHPRP: the “shrunken log2 fold change” value is 0.0756. The value for RRIRTRPPRLPRPRPRPGTYPRP was 0.0862. The value for RRIRNRPPRLPRPRPRPRAPPRP was 0.972; that for RRIRFRPPRLPRPRPRPKPEPRP was 0.37; that for RRIRNRPPRLPRPRPRPVASPRP was -0.0843. Regarding RRIRFRPPRLPRPRPRPKVVPRP, the “shrunken log2 fold change” value turned out to be 0.291.

RRIRGRPPRLPRPRPRPYADPRP: the “shrunken log2 fold change” value was determined as 0.0582. In the case of RRIRGRPPRLPRPRPRPDWSPRP, the “shrunken log2 fold change” value turned out to be 0.203. Regarding RRIRARPPRLPRPRPRPKTIPRP, the “shrunken log2 fold change” value stood at 0.038. The value for RRIRPRPPRLPRPRPRPNTTPRP was -0.131; that for RRIRYRPPRLPRPRPRPKKHPRP was -0.646. With RRIRSRPPRLPRPRPRPCIAPRP, the “shrunken log2 fold change” value was -0.22. Then RRIRTRPPRLPRPRPRPNPFPRP, with -0.216; and RRIRNRPPRLPRPRPRPGKRPRP, with 0.00355; and RRIRDRPPRLPRPRPRPAPMPRP, with 0.445. Then RRIRYRPPRLPRPRPRPYAIPRP, with -0.00088; and RRIRLRPPRLPRPRPRPSVAPRP, with -0.0589; and RRIRQRPPRLPRPRPRPAAQPRP, with -0.00152. The value for RRIRVRPPRLPRPRPRPFGRPRP was 0.0302; that for RRIRGRPPRLPRPRPRPQWVPRP was 0.218; that for RRIRCRPPRLPRPRPRPWSRPRP was -0.391. On to RRIRKRPPRLPRPRPRPPCWPRP, for which the “shrunken log2 fold change” value turned out to be 1.03.

Take RRIRDRPPRLPRPRPRPAGHPRP: the “shrunken log2 fold change” value is 0.261. The value for RRIRCRPPRLPRPRPRPAINPRP was -0.606; that for RRIRDRPPRLPRPRPRPMIDPRP was 0.141; that for RRIRQRPPRLPRPRPRPWGYPRP was -0.166. Then RRIRWRPPRLPRPRPRPGQEPRP, with 0.617. The value for RRIRHRPPRLPRPRPRPLREPRP was 0.819; that for RRIRFRPPRLPRPRPRPDVIPRP was 0.0834. In the case of RRIRDRPPRLPRPRPRPRNFPRP, the “shrunken log2 fold change” value was found to be 0.0881. On to RRIRPRPPRLPRPRPRPTDSPRP, for which the “shrunken log2 fold change” value is -0.245.

On to RRIRKRPPRLPRPRPRPLQMPRP, for which the “shrunken log2 fold change” value is -0.0261.

With RRIRWRPPRLPRPRPRPYQYPRP, the “shrunken log2 fold change” value is -0.0756. The value for RRIRKRPPRLPRPRPRPHNHPRP was -0.533. Then RRIRGRPPRLPRPRPRPTVQPRP, with 0.796; and RRIRHRPPRLPRPRPRPGSAPRP, with 0.323.

As to RRIRMRPPRLPRPRPRPMTRPRP, the “shrunken log2 fold change” value turned out to be 0.118.

Take RRIRNRPPRLPRPRPRPAGGPRP: the “shrunken log2 fold change” value amounted to 0.16. The value for RRIRARPPRLPRPRPRPCDLPRP was 0.15; that for RRIRTRPPRLPRPRPRPKRSPRP was 0.207.

Regarding RRIRRRPPRLPRPRPRPCLLPRP, the “shrunken log2 fold change” value was -0.335. Turning to RRIRGRPPRLPRPRPRPLTHPRP, the “shrunken log2 fold change” value stood at 0.168. Then RRIRPRPPRLPRPRPRPNYKPRP, with -0.537. The value for RRIRCRPPRLPRPRPRPWKRPRP was -0.0584; that for RRIRNRPPRLPRPRPRPTDMPRP was -0.0588; that for RRIRRRPPRLPRPRPRPNGHPRP was 0.193. The value for RRIRDRPPRLPRPRPRPPITPRP was -0.217. For the sequence RRIRYRPPRLPRPRPRPCQAPRP, the “shrunken log2 fold change” value was -0.269.

Take RRIRRRPPRLPRPRPRPKFWPRP: the “shrunken log2 fold change” value amounted to 0.278.

Turning to RRIRGRPPRLPRPRPRPLQDPRP, the “shrunken log2 fold change” value amounted to 0.98. Consider RRIRSRPPRLPRPRPRPYSDPRP, for which the “shrunken log2 fold change” value was -0.0368. As to RRIRPRPPRLPRPRPRPLGTPRP, the “shrunken log2 fold change” value was found to be 0.125. On to RRIRHRPPRLPRPRPRPCIKPRP, for which the “shrunken log2 fold change” value is -0.721. As to RRIRDRPPRLPRPRPRPANRPRP, the “shrunken log2 fold change” value was -0.0377. Then RRIRFRPPRLPRPRPRPQDPPRP, with -0.00978; and RRIRTRPPRLPRPRPRPDDEPRP, with 0.0101. As to RRIRYRPPRLPRPRPRPAANPRP, the “shrunken log2 fold change” value was -0.0861. With RRIRSRPPRLPRPRPRPYKHPRP, the “shrunken log2 fold change” value is -0.734. Then RRIRYRPPRLPRPRPRPYEMPRP, with -0.104; and RRIRRRPPRLPRPRPRPGIMPRP, with 0.156. Take RRIRERPPRLPRPRPRPRGCPRP: the “shrunken log2 fold change” value is 0.286. Then RRIRKRPPRLPRPRPRPMIYPRP, with -0.718; and RRIRVRPPRLPRPRPRPNDMPRP, with -0.337; and RRIRARPPRLPRPRPRPDKWPRP, with -0.0676.

As for RRIRFRPPRLPRPRPRPPKPPRP, the “shrunken log2 fold change” value was 0.47.

For the sequence RRIRSRPPRLPRPRPRPIKLPRP, the “shrunken log2 fold change” value turned out to be 0.0994. With RRIRWRPPRLPRPRPRPFQYPRP, the “shrunken log2 fold change” value is -0.199.

Regarding RRIRERPPRLPRPRPRPGSTPRP, the “shrunken log2 fold change” value is -0.401. Then RRIRMRPPRLPRPRPRPSRNPRP, with 0.476; and RRIRKRPPRLPRPRPRPMPYPRP, with -0.0398.

Regarding RRIRSRPPRLPRPRPRPAKPPRP, the “shrunken log2 fold change” value is -0.146.

As for RRIRVRPPRLPRPRPRPCEHPRP, the “shrunken log2 fold change” value is -0.0331.

For the sequence RRIRNRPPRLPRPRPRPIMPPRP, the “shrunken log2 fold change” value is -0.225.

For RRIRFRPPRLPRPRPRPYWHPRP, the “shrunken log2 fold change” value is -0.754. Then RRIRYRPPRLPRPRPRPSKHPRP, with -0.786; and RRIRRRPPRLPRPRPRPFQCPRP, with -0.00197.

For the origin of these results see the supplement of paper PMC9112550, “Optimization of the antimicrobial peptide Bac7 by deep mutational scanning” (BMC Biology, 2022).
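Further: peptides expressed intracellularly from a pBAD plasmid library in pooled LB shake-flask culture, induced with 0.3% L-arabinose, DNA abundance read by NGS, three biological replicates, DESeq2 with apeglm shrinkage.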
